# Like-named read-outs stand apart in the source and are kept apart here.
# T1: C5a receptor 1 (human, UniProt P21730 1-350)
# T1 construct: whole, on cells; Also used here for native C5a1 on human macrophages; also called C5a1; CD88
# T1 sequence (looked up): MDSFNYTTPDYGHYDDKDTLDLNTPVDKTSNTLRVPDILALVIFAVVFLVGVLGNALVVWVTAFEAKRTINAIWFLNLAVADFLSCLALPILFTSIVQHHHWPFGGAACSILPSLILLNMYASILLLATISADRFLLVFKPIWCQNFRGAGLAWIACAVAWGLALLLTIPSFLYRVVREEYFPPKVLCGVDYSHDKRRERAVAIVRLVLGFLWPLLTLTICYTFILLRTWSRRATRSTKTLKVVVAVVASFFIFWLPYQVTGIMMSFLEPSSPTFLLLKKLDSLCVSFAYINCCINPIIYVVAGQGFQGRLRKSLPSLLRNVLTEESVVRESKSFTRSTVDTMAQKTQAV
# B1: Human recombinant C5a (ligand, UniProt P01031 678-751, looked up)
# chain: TLQKKIEEIAAKYKHSVVKKCCYDGACVNNDETCEQRAARISLGPRCIKAFTECCVVASQLRANISHKDMQLGR
# notes: also called native C5a
# B2: Human isolated C5a-des Arg (ligand, UniProt P01031 678-750, looked up)
# chain: TLQKKIEEIAAKYKHSVVKKCCYDGACVNNDETCEQRAARISLGPRCIKAFTECCVVASQLRANISHKDMQLG
# B3: Peptide P32, Ac-RHYPYWR-OH (peptide)
# peptide: Ac-RHYPYWR-OH
# notes: Synthetic, computationally designed heptapeptide based on the C-terminus of C5a
# B4: Peptide P59, Ac-LIRLWR-OH (peptide)
# peptide: Ac-LIRLWR-OH
# notes: Synthetic, computationally designed hexapeptide based on the C-terminus of C5a
# How the values were obtained:
# Human C5a receptor 2 [1] = target: T2, Human C5a receptor 2 (human, UniProt Q9P296 1-337); assay: 125I-C5a displacement, SPA on Flp-In CHO-C5a2 membranes
# T2 construct: whole, on cells; also used here for native C5a2 on human monocyte derived macrophages and for the human C5a2 of the DiscoveRx PathHunter kit; also called C5a2; C5L2
# Experimental: P32 and P59 were previously shown to have no activity (either as an agonist or antagonist) up to a concentration of 100 μM, when the library was previously screened for activity at C3aR and C5a1²⁷.
# (§1) C5a2 receptor binding studies were performed using a modification of a previously described scintillation proximity assay (SPA) method⁴⁸. Briefly, C5a2 SPA studies were performed in 96-well white isoplates with clear flat bottoms (Perkin Elmer, Waltham, Mass., USA). SPA beads (200 μg/well) were added, following the addition of various concentrations of competing ligands or buffer (6 pM to 500 μM) in a total volume of 80 μL of assay buffer (50 mM Tris-HCl, pH 7.4, 0.5% BSA, 5 mM MgCl₂, 1 mM CaCl₂). ¹²⁵I-C5a (˜20 pM) (specific activity, 2200 Ci mmol⁻¹) (Perkin Elmer) was added to C5a2 membrane preparations (˜2 μg/well). The final reaction volume per well comprised 20 μL of ligand/buffer, 20 μL of SPA beads, 20 μl of membrane and the assay was initiated by the addition of 20 μL of ¹²⁵I-C5a. The plate was then sealed using TopSeal-A (Perkin Elmer) sealing film and incubated with shaking for 1 h at room temperature. Radioligand binding was then assessed for 30 s/well using a 1450 Microbeta scintillation counter (Perkin Elmer).
# C5a2-Venus [2] = target: T3, C5a2-Venus (UniProt Q9P296 1-337); assay: cell-based or functional assay
# Human C5a receptor 2 [3] = target: T2, Human C5a receptor 2; assay: 125I-C5a displacement, SPA on Flp-In CHO-C5a2 membranes; remark: listed apart in the source
# Experimental: To further address this issue, C5a2 SPA was used to test for the binding of C3a or C3a-des arg to C5a2.
# as §1
# C5a2-Venus [4] = target: T3, C5a2-Venus; assay: cell-based or functional assay; remark: listed apart in the source
# C5a receptor 1 = target: T1, C5a receptor 1; assay: 125I-C5a displacement on C5aR1 membranes
# T3 sequence (Q9P296 whole entry): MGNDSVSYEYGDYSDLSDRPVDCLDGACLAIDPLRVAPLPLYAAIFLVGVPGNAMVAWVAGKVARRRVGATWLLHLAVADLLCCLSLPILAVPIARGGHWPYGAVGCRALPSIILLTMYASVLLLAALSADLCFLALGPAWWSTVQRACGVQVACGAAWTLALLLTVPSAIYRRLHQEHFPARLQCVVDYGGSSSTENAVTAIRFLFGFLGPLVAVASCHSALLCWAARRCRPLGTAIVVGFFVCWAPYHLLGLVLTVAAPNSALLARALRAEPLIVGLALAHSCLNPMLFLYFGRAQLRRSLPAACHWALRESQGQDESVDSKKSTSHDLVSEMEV
# T2 sequence (Q9P296 whole entry): as above
Binder,Ki (Human C5a receptor 2 [1]),C5a2-β-arrestin 2 BRET Recruitment (% of C5a) (C5a2-Venus [2]),Ki (Human C5a receptor 2 [3]),fold higher efficacy of β-arrestin 2 recruitment than the affinity for C5a2 (C5a2-Venus [4]),Ki (C5a receptor 1)
B1,0.0013 µM,100 % of C5a,,,
B2,,,0.0015 µM,,
B3,223 µM,28.8 % of C5a,,~37 fold,234 µM
B4,48 µM,52.9 % of C5a,,~6 fold,466 µM

# Reference: US20170129921A1 (University of California, published 2017)
